Publication PMC2975869

Target: HA-tagged M593A-PTH1R (UniProt Q03431)
Assay: radioligand binding

## [125I]-PTH(1-34)NH2 (peptide)
  Total Binding (TB), cells co-transfected with EBP50: 1290
  Total Binding (TB), cells co-transfected with pcDNA3: 1180
